From patent publication US20240190983A1 (JULIUS MAXIMILIANS UNIVERSIT T W RZBURG, published 2024)

What was measured:
[1] = molecular target: T1, Extracellular domain of TNFR1 with a GPI anchor domain (UniProt P19438 30-211); assay: binding of the GpL tagged protein to HEK293 cells transiently transfected with the TNFR1 extracellular domain with GPI anchor; empty-vector cells as non-specific binding
T1 construct: extracellular domain; not shown: GPI anchor domain
T1 sequence (looked up): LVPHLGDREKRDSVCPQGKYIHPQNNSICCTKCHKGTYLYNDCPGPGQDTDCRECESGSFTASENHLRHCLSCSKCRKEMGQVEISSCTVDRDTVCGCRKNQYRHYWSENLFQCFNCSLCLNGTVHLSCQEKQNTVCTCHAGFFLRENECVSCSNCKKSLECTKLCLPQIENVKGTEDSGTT
Procedure: (§1) HEK293 cells were transiently transfected with: (i) a TNFR2 expression plasmid; (ii) an expression plasmid encoding the extracellular domain of TNFR1 with a GPI anchor domain; or (iii) empty vector (ev). Next day, the indicated GpL tagged binding molecules were added at the indicated concentration to the cells. After incubation for 1 hour at 37° C., followed by two washes with PBS, the remaining cell bound GpL activity was determined.
(§2) An experiment was performed to illustrate the ability of the binding molecules provided to bind TNFR2, but not TNFR1. HEK293 cells were transiently transfected with: (i) a TNFR2 expression plasmid; (ii) an expression plasmid encoding the extracellular domain of TNFR1 with a GPI anchor domain; or (iii) empty vector (ev). […] The proteins indicated in FIG. 27 were added at the indicated concentration to the HEK293 cells. After incubation for 1 hour at 37° C., followed by two washes with PBS, the remaining cell bound GpL activity was determined.

Murine TNFR2 [2] = molecular target: T2, Murine TNFR2 (mouse, UniProt P25119 23-474); assay: equilibrium binding of the GpL fusion protein (label C27-IgG1-LC:GpL) to HEK293 cells transiently transfected with murine TNFR2; empty-vector cells as non-specific binding
T2 construct: Expressed on transiently transfected HEK293 cells; also called mouse TNFR2; TNFR2(mu)
T2 sequence: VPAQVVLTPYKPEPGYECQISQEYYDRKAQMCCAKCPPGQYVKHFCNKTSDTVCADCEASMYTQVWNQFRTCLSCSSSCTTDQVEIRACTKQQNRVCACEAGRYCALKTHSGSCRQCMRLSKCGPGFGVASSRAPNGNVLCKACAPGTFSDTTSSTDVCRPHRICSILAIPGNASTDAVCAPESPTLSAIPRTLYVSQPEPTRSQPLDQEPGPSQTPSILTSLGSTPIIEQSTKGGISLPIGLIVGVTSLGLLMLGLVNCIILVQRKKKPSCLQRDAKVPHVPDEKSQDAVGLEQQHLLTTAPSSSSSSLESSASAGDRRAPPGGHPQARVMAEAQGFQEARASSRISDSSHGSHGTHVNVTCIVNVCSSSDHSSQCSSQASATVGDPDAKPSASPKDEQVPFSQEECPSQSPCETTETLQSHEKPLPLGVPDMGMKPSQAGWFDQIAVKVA
Procedure: (§3) FIG. 14—Binding of TNFR2-specific antibodies to human, murine and cynomolgus TNFR2. HEK293 cells were transiently transfected with human, murine and cynomologus TNFR2 or empty vector. Equilibrium binding of the indicated anti-TNFR2 antibody GpL fusion proteins were then determined at 37° C. Binding to empty vector transfected cells was determined to obtain unspecific binding values.
(§4) Affinity (KD-values) of TNFR2-targeting antibodies to human, cynomolgus monkey, and murine TNFR2 was evaluated by cellular equilibrium binding studies. Therefore, HEK293T cells were transiently transfected with human, cynomolgus or mouse TNFR2 encoding expression plasmids or an empty vector control (EV) using the PEI method. […] Cell associated luciferase activity (RLU; relative light units) was detected with LUmo luminometer (anthos Mikrosysteme GmbH, Friesoythe, Germany) directly after adding 1.5 μM of the substrate coelenterazin (Carl Roth, Karlsruhe, Germany).
(§5) The binding properties of anti-TNFR2 antibodies from different clones were assessed. […] Equilibrium binding of the indicated anti-TNFR2 antibody GpL fusion proteins was then determined at 37° C. Binding to empty vector transfected cells was determined to obtain unspecific binding values.

Human TNFR2 [3] = molecular target: T3, Human TNFR2 (human, UniProt P20333 23-461); assay: binding of the GpL tagged protein to HEK293 cells transiently transfected with TNFR2, 1 h 37 °C; empty-vector cells as non-specific binding
T3 construct: On cells: HeLa-TNFR2, HT1080-Bcl2-TNFR2, transiently transfected HEK293; endogenous on Kym-1 cells; also called huTNFR2; TNFRSF1B
T3 sequence: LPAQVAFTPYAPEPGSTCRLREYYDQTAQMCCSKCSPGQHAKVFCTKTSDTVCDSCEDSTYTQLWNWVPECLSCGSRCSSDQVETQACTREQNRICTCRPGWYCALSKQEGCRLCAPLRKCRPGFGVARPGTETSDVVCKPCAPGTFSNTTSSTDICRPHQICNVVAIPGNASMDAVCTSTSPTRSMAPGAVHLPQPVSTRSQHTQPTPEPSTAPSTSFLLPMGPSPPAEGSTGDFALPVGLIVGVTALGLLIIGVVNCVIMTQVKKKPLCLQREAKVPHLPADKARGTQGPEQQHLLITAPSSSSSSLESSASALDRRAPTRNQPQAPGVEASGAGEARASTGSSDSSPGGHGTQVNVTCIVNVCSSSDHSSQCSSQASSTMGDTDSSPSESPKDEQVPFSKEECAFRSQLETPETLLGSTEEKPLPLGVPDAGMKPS
Procedure: as §1, §2

Human TNFR2 [4] = molecular target: T3, Human TNFR2; assay: equilibrium binding of the GpL fusion protein to HeLa-TNFR2 cells, 37 °C; unspecific binding on HeLa cells subtracted; cell-bound luciferase
Procedure: FIG. 11—Binding properties of TNFR2-specific antibodies. (A) Equilibrium binding of the indicated anti-TNFR2 antibody GpL fusion proteins to cell expressed human TNFR2 at 37° C. (B) HeLa-TNFR2 cells were pretreated with the indicated amounts of anti-TNFR2 antibodies or remained untreated. […] Binding of the various constructs to untransfected HeLa cells was analyzed to obtain unspecific binding values.
Affinity of TNFR2-specific antibodies and antibody variants were also evaluated with HeLa cells and HeLa cells stably expressing human TNFR2. HeLa and HeLa-TNFR2 cells were seeded out in 24-well plates. Next day, the cells were challenged with the indicated concentrations of GpL-labelled TNFR2 antibodies for 1 hour at 37° C. To eliminate the unbound antibodies, the cells were washed 10 times with ice-cold PBS. The cells were then scratched and collected in 50 μl of medium (RPMI, 0.5% FCS) and transferred to black 96-well plates for measurement as mentioned above. The specific binding of different TNFR2-specific antibodies/antibody variants was calculated by subtracting the unspecific binding (values obtained from HeLa cells) from total binding (obtained from HeLa-TNFR2). The resulting values were fitted using the non-linear regression analysis option of GraphPad Prism 5.

Cynomolgus TNFR2 = molecular target: T4, Cynomolgus TNFR2 (Macaca fascicularis (cynomolgus monkey), UniProt P20333 26-461 (human entry)); assay: equilibrium binding of the GpL fusion protein to HEK293 cells transiently transfected with cynomolgus TNFR2, 37 °C; empty-vector cells as non-specific binding
T4 construct: Expressed on transiently transfected HEK293 cells; also called TNFR2-cyno; monkey TNFR2
T4 chain: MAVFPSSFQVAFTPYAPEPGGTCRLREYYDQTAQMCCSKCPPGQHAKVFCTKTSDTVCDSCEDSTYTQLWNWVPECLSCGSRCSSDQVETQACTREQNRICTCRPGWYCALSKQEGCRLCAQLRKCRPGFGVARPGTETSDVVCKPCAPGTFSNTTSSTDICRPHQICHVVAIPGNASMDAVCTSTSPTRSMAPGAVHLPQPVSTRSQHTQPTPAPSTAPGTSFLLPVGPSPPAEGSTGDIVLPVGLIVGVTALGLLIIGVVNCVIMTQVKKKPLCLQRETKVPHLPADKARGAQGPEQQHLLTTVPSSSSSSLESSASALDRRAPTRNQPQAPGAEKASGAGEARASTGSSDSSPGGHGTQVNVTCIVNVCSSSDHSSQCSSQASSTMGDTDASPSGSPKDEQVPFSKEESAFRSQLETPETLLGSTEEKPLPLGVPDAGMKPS
Procedure: as §3, §4, §5

Murine TNFR2 [5] = molecular target: T2, Murine TNFR2; assay: equilibrium binding of the GpL fusion protein (label C9-IgG1-LC:GpL) to HEK293 cells transiently transfected with murine TNFR2; empty-vector cells as non-specific binding
Procedure: as §3, §4, §5

B1: C27-IgG1(N297A)-LC:GpL (antibody)
light: EVKLVPRQLDYKDDDDKELNIVMTQSPKSLSMSVGERVTLNCKASENVKTYVSWYQQKPEQSPKLLIYGASNRYTGVPDRFTGSGSATDFTLTISSVQAEDLADYHCGQSYSYPFTFGAGTKLERKGSEIKRTVAAPSVFIFPPSDEQLKSGTASVVCLLNNFYPREAKVQWKVDNALQSGNSQESVTEQDSKDSTYSLSSTLTLSKADYEKHKVYACEVTHQGLSSPVTKSFNRGECLEKPTENNEDFNIVAVASNFATTDLDADRGKLPGKKLPLEVLKEMEANARKAGCTRGCLICLSHIKCTPKMKKFIPGRCHTYEGDKESAQGGIGEAIVDIPEIPGFKDLEPMEQFIAQVDLCVDCTTGCLKGLANVQCSDLLKKWLPQRCATFASKIQGQVDKIKGAGGD
heavy: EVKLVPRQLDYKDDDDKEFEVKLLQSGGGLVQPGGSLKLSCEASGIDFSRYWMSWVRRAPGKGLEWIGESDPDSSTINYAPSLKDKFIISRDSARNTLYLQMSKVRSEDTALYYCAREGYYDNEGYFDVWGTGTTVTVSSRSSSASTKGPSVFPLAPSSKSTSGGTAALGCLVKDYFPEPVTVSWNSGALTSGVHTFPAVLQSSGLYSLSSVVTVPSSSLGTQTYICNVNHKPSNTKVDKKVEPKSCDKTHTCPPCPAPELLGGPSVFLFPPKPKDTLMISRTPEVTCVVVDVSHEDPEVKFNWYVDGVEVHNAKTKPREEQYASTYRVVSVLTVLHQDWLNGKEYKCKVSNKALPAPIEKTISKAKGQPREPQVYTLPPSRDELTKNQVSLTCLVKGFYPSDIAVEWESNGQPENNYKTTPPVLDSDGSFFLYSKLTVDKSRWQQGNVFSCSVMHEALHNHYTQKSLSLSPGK
notes: copies: 2 + 2
binding result [1]: no binding (tested: 750 ng/ml) | binding result (Murine TNFR2 [2]): no binding (tested: 1000 ng/ml)

B2: C9-IgG1(N297A)-LC:GpL (antibody)
light: EVKLVPRQLDYKDDDDKELQIVLTQSPAIMSASPGEKVTITCSASSSVSYMHWFQQKPGTSPKLWIYSTSNLASGVPARFSGSGSGTSYSLTISRMEAEDAATYYCQQRSSYPPTFGGGTKLEIKGSEIKRTVAAPSVFIFPPSDEQLKSGTASVVCLLNNFYPREAKVQWKVDNALQSGNSQESVTEQDSKDSTYSLSSTLTLSKADYEKHKVYACEVTHQGLSSPVTKSFNRGECLEKPTENNEDFNIVAVASNFATTDLDADRGKLPGKKLPLEVLKEMEANARKAGCTRGCLICLSHIKCTPKMKKFIPGRCHTYEGDKESAQGGIGEAIVDIPEIPGFKDLEPMEQFIAQVDLCVDCTTGCLKGLANVQCSDLLKKWLPQRCATFASKIQGQVDKIKGAGGD
heavy: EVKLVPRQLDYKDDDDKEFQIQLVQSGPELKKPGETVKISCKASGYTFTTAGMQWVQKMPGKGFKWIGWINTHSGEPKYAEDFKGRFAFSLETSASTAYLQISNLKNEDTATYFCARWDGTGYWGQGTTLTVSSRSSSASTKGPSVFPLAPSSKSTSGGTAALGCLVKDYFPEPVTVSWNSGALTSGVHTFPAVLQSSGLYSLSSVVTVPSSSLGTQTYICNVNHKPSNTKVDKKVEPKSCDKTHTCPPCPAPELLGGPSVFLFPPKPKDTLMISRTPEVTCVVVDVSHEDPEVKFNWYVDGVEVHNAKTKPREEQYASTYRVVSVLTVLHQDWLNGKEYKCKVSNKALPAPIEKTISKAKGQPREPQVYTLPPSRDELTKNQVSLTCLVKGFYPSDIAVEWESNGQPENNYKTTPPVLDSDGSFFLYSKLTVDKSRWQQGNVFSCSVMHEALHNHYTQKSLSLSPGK
notes: copies: 2 + 2
Kd (Human TNFR2 [3]): 0.13 µg/mL | Bmax (Human TNFR2 [4]): 1000 kRLU | Kd (Human TNFR2 [4]): 0.22 µg/mL | Kd (Cynomolgus TNFR2): 1.1 µg/mL | binding result [1]: no binding (tested: 750 ng/ml) | binding result (Murine TNFR2 [5]): no binding (tested: 1500 ng/ml)
